Source: a protein production outcome set (Wang et al. 2014)

Test: label from the status in PepcDB records

Row | Sequence | protein production
1 | MIFSPDAFTGSILAVEGIRDAAVILNGPTGCKLYHSFLSDRQFPRESSHDPLAFQDEFYFGQPRVPCTCLDGEDFIQGSLEKFERALAAVAAKEKGLLVVINSPGASLVGDDLENVIKNAGLQNRCFVVEKTGFSLPAAQGFENTTLTLLEHLKLRSLFRPHNRSEFPKKVNLIGLSLLHKHWEGSVAEMKRLLSFLGLEVGAILLAGTSLDEIRESNNAACNIVLFPEYGRRVAEWYRKHFGIPAVFSPLGAPLGFDANESLLREVAAILNIDPAPALAEVREARQTSYRQISRFHSFSGLPKGASFSIQAESSLVFPLTHWLYSYLGMAPYAVKLLPGSDPEMARSLKSFLTEKGFCEAWDRDLSLESVDIAFADSFTLQLLKAKGCCKAGIEISLPDRGYIHFIPKTYLGVSGALFLLEEIINGLRST | failed
2 | MGIFEPFRAIGYITSTVPFSVQRLGTETFVTVSVGKAFQIYNCAKLNLVIISPQLPKKIRALASYRDYTFVAFGNEIAVFRRAHQVATWSKHVAKVDLLLVFGEHVLSLDVEGNMFIWAFKGIEEHLAPIGNLQLTGKFTPTSIVHPDTYLNKVLVGSQEGPLQLWNINTKKMLYQFKGWGSSVTSCVSSPALDVVAIGCADGKIHVHNIKLDEEIVTFEHASRGAVTALSFSTDGRPLLASGGSFGVISIWNLNKKRLQSVIRDAHDSSIISLNFLANEPVLMSASADNSLKMWIFDTNDGDPRLLRFRSGHSAPPLCIRFYSNGRHILSAGQDRAFRLFSVIQEQQSRELSQRHISRRAKKLRLKEEELKLKPVVSFDCAEIRERDWCNVVTCHMDTAEAYVWRLQNFVLGEHILKPCPENPTPIKACAISACGNFAVVGTAGGWIERFNLQSGISRGSYFDMSEKRRYAHDGEVIGVACDSTNTLMISAGYHGDLKVWDFKKRELKSQWDVGCSLVKIVYHRVNGLLATVADDFVIRLYDVVTLKMVREFRGHTDRITDLCFSEDGKWVISSSMDGSLRIWDVILAKQIDGVHVDVPITALSLSPNMDVLATAHSDQNGVYLWVNQSMFSGLPSVESYASGKDVVNVKLPSVSALTSSEADDDMDRQVLENSEALQASSFSISQKQIPELVTLSLLPKSQWQSLINLDIIKARNKPIEPPKKPEKAPFFLPSIPSLSGDILFKANDSEADGENEENNKKDQNSMKNFDALESPFSKHLKSSWDSKHFLDFTNYMKSLSPSALDMELRMLEIIDEDVEEELIKRPEFILIGQLLDYFINEVSCKNDFEFMQAVVKLFLKIHGETIRCHPSLQEKAKKLLETQSLVWQKMEKLFQSTRCIVTFLSNSQF | failed
3 | MDRRHEIYEWFRINRFKVDMTATCLLILLFGPVYLVADRPWLFLLSCSLLLPLAWRRTRPAVAAGVVILVCLVQWAVAAEPVAGQIAVPLVIYATAAYGPAWASRTVLLAGLLGGVMLTTRLFSTTAESGILGLTIGALYTVLIWMLVLVSWTLGDLTRVRRLQLQALEDRTRRLEVEQMQERKLAAADERSHIAREMHDIVAHSLSVIITQADGARYAAAAKPELATEALATIAATGRDSLGEMRRLLGVLRSDDDSPTRPQPRLSDLDELLLGFRAATLQVTFEQSGAPRRALPAGAELTAYRIIQEALTNVMKHAGPRATAAVTLAWQARGLQVDVVDDGRGAAADPPTAGGGNGLRGMGERVSLYDGSLTAGPEQGGGFRVSAFIPYSEA | failed
4 | MDRMYEQNQMPHNNEAEQSVLGSIIIDPELINTTQEVLLPESFYRGAHQHIFRAMMHLNEDNKEIDVVTLMDQLSTEGTLNEAGGPQYLAELSTNVPTTRNVQYYTDIVSKHALKRRLIQTADSIANDGYNDELELDAILSDAERRILELSSSRESDGFKDIRDVLGQVYETAEELDQNSGQTPGIPTGYRDLDQMTAGFNRNDLIILAARPSVGKTAFALNIAQKVATHEDMYTVGIFSLEMGADQLATRMICSSGNVDSNRLRTGTMTEEDWSRFTIAVGKLSRTKIFIDDTPGIRINDLRSKCRRLKQEHGLDMIVIDYLQLIQGSGSRASDNRQQEVSEISRTLKALARELECPVIALSQLSRGVEQRQDKRPMMSDIRESGSIEQDADIVAFLYRDDYYNRGGDEDDDDDGGFEPQTNDENGEIEIIIAKQRNGPTGTVKLHFMKQYNKFTDIDYAHADMM | failed
5 | MNIDLTPYYAEPGEQPFSARRMAMPWRNHVPLSPEQIPAGWQTLKQQSVPARKRLLYLHIPFCATHCTFCGFYQNKLRDDSTATYTRYLLQELAMEADSPLHQSAPIHAVYFGGGTPTALAADELSQIIRAIRTSLPLAPDCEITVEGRAMDFDDERIDACLDAGANRFSIGIQTFDTRIRQRMARTSDKQQSIRFLERLCGRDRAAVVCDLMFGLPGQTPEIWREDLAIVSDLPLDGVDLYALNLLPTTPLAKAAENQRVALPDVVARRDFYRTGAAFLADSGWHQLSNSHWARTTRERNLYNLLIKQGADCLAMGSGAGGNINGQAYMMERSLERYYQQIDQGQKPIMMMTPASSTGPWQHQLQAGIEVGRIKLPQLTQHARELQPLLSQWHQAGLTCDDSTCLRLTNDGRFWANNLMQALQQIIPQLNAEEHAHLEHHHHHH | not failed
6 | MELLLSKVTDAGIDPSSVSGEEAITLWEHIGRHIASTSREKAHCLIISAEYRREIKQLCDSIEELRQALELLSLPEDVEDILSVKASLSERLVEVGDYNSALTEYIASTNIAVEYGFIDEYVLAIIGMGNLCDAYGDHNRALRYYQKIDAIDHAISSRSLRLRYKLYMLACYISLKRVAEASELLGECEELSILVSDKNLAAQTHLYRAKLHRLQEEYSEALLSISSIKYTTGSATTYWLSTMVKIETAYCLNGVGHTSLANLLLESIGKRIKKHSSPILAKRFYNAMSKVSASQGQFQQALSCEKRAFRIESDLIKHIPISELGAAQLRRLSRFELQLKLILSEIENKELKETTKQHKNTVAQLQQDVFTDPLTSLHNRRWLEVKLKDMLLHDTPFALMVIDIDHFKSINDELSHLVGDKAIKSVSQELAAYFKFKGASCVRFGGEEFLVILENSQLERAEMHAENYRERIFKYAWRDILGERGLTVSIGITLHREGENTQRTFYRADKALYRAKANGRNQVCTEL | failed
7 | MTSCTIIDATDRSIRQTLGETSTLARLIWVDAGLASPPLCSGLARCGRCRVRITEAAPAPHEDDREFFSAEDISAGWRLACRHAPAHGMVVHVPLEHHHHHH | not failed
8 | AVYLDCRDLQRTWEVIFNLFEPELQEFTRKVPINHIRQLVEHKHAKPVFSSPIVEGETVMVSCQFTCMEKTIKVYGFGSNKDQAKLSAAKHALQQLSKCDA | failed
9 | ERIPLAVGDTPATLYRLEGDAEAPLAVVTHGFGGSRQMMEAISLTLARAGLAVVSFDFRGQGRSAIPMSPDAFPNEAGSSGTTVQLVRQTLEVVEAARALPGIAGPPALIGHSMATDILVRAADRLPEVGPVALISAYSRQVTPETPARLLILSGQREGGLREVALEMARQVAPDAAEGETVRAGAVERRASVAPYVGHAGVLWSPTTLRELRDWL | failed
10 | MHCNDGGPATLGLFSDSDLQQPARVEVLGPQSRVLRGFALPWVEALLPQLDAVLAAAPFRQMQTPGGFTMSVGLSSCGQLGWTTDRSGYRYSPIDPQSQRPWPALPKVFQELAEAAAEAAGFPGFAPDSCLINCYRPGAKMSLHQDKNERDYSAPIVSLSLGLPAIFLFGGRQRSDKSQRVALLHGDVVVWGGVDRLRYHGVLALKDGHHPLLGQQRINLTLRRAGLEHHHHHH | failed
11 | MRTVLNILNFVLGGFATTLAWLLATLVSIVLIFTLPLTRSCWEITKLSLFPYGNEAIHVDELNPAAKSVLMNTGGTLLNIFWLLFFGWWLCLMHIASGIAQCVTIIGIPVGIANFKIAAIALWPVGRRVVSVETARAAREANARRRFE | failed
12 | TAEEVVTVALRCPSGNVLRRRFLKSYSSQVLFDWMTRIGYHISLYSLSTSFPRRPLAVEGGQSLEDIGITVDTVLILEEKE | failed
13 | MICVYTEDRWADILAAVASVRAQSRPARETLLVVDHHQTLLERLSREYKEVPEVRVLANAGPRGLSAGRNTGIAASHGEIIAFLDDDAVAERDWLRHFAEGYEDPRVMAVGGRTMPIWASGRRPAWFPEEFDWVVGCTYKGLPPGRVRVRNVLGGNASFRRTAFDAAGGFATGIGRDGDKRPLGCEETELCIRLTRARPDAILLIDDRAVIHHRVPEPREHFAYFRTRTYAEGLSKALVARSVGAGKGLESERRYTTRVLPAGVARGLRDAALARPGGAGRAGAIVAGVLTAAGGYVLGSVRARRGGATFSVVEPPDSEGEAA | failed
14 | MPKVNLYATFRDLTGKSQLELPGATVGEVLENLVRAYPALKEELFEGEGLAERVSVFLEGRDVRYLQGLSTPLSPGATLDLFPPVAGGGFERTFGAFPPWLLERYLEEWGGTREGEGVYRLPGAVVRFREVEPLKVGSLSIPQLRVEVEGEEAERWFERIAFAASRGGG | not failed
